Measurements as given in publication PMC11208146, “Molecular basis for transposase activation by a dedicated AAA+ ATPase”.

Tests used:
IstB = IstB (Geobacillus stearothermophilus (IS5376, …, UniProt Q45619 1-251)); test: cryo-EM structure (3.2 A); size-exclusion co-elution; 1 mM ATP, 5 mM MgCl2; IstB-DNA: 20 mM HEPES pH 7.5, 150 mM NaCl, 5 mM MgCl2, 5% glycerol, 1 mM ATP, 1 mM DTT; dialysis at 4 C, SEC at room temperature; IstB:DNA 6.5:1. STC complex buffer not in the material; conditions: protein: recombinant; tags: His6-MBP, cleaved with PreScission protease; chain copies: 10; blunt
IstA;IstB = IstA;IstB (Geobacillus stearothermophilus (IS5376, …, UniProt Q45618;Q45619 1-400;1-251, |)); test: negative-stain EM 2D averages; wild-type IstB; IstB-DNA: 20 mM HEPES pH 7.5, 150 mM NaCl, 5 mM MgCl2, 5% glycerol, 1 mM ATP, 1 mM DTT; dialysis at 4 C, SEC at room temperature; IstB:DNA 6.5:1. STC complex buffer not in the material; conditions: protein: recombinant;recombinant; tags: C-terminal MBP-His6, cleaved with TEV protease;His6-MBP, cleaved with PreScission protease; chain copies: 4;20; 5' overhang 5 nt on non-transferred strand; half-substrates of 3 strands, 2 copies pair via the insertion site (5 bp spacing)
[1] = molecular target: IstA;IstB E167Q (Walker B mutant) (Geobacillus stearothermophilus (IS5376, …, UniProt Q45618;Q45619 1-400;1-251, |E167Q)); test: cryo-EM structure (3.6 A; core 3.2 A); ATP, with ADP in IstA-bound IstB subunits; Mg2+; IstB-DNA: 20 mM HEPES pH 7.5, 150 mM NaCl, 5 mM MgCl2, 5% glycerol, 1 mM ATP, 1 mM DTT; dialysis at 4 C, SEC at room temperature; IstB:DNA 6.5:1. STC complex buffer not in the material; conditions: protein: recombinant;recombinant; tags: C-terminal MBP-His6, cleaved with TEV protease;His6-MBP, cleaved with PreScission protease; chain copies: 4;20; 5' overhang 5 nt on non-transferred strand; half-substrates of 3 strands, 2 copies pair via the insertion site (5 bp spacing)

| Binder | binding result (IstB) | binding result (IstA;IstB) | binding result [1] |
| --- | --- | --- | --- |
| random 60-mer target duplex (dsDNA) DNA 1: TGCTTGCGATGATCCGACGTGTTAGCCACGCTGACTAGTTATGCCATGCCTCCCTTCAGG DNA 2: CCTGAAGGGAGGCATGGCATAACTAGTCAGCGTGGCTAACACGTCGGATCATCGCAAGCA | binds | – | – |
| IS21 strand-transfer complex (STC) DNA (dsDNA) DNA 1: CCTTCTGGGGAATTTTAAACCGGCGATTTTGGGGAAAAAATAATCGGCCTTGACAGCTGCACAGTAAGAGAATTATGCAGTGCTGCCATAACCATGAGTGATAACACTGCGGCCAACTTACTTCTGACAA DNA 2: ATTCATGTCAAGGCCGATTATTTTTTCCCCAAAATCGCCGGTTTAAAATTCCCCAGAAGG DNA 3: TTGTCAGAAGTAAGTTGGCCGCAGTGTTATCACTCATGGTTATGGCAGCACTGCATAATTCTCTTACTGT | – | binds | binds |
